These results are taken from publication PMC7641732, “Structural basis of prostate-specific membrane antigen recognition by the A9g RNA aptamer”.

This data set has as its target human PSMA extracellular part (wtPSMA) (human, UniProt Q04609 44-750). Put plainly: X-ray crystallography 2.2 A; 2-PMPA, active-site Zn2+; IC50: 20 mM Tris, 150 mM NaCl, pH 8.0, 37 C preincubation 10 min; flow cytometry: 10 mM Tris, 150 mM NaCl, pH 7.4, 0.5% fish gelatin (inhibitor preincubation 4). As to conditions: protein: recombinant; tags: N-terminal Strep-FLAG; chain copies: 2; stem-loop: S1 7 bp, 4x1 internal loop, S2 4 bp, 16-nt hairpin loop.

Sequence of human PSMA extracellular part (wtPSMA) (Q04609 44-750): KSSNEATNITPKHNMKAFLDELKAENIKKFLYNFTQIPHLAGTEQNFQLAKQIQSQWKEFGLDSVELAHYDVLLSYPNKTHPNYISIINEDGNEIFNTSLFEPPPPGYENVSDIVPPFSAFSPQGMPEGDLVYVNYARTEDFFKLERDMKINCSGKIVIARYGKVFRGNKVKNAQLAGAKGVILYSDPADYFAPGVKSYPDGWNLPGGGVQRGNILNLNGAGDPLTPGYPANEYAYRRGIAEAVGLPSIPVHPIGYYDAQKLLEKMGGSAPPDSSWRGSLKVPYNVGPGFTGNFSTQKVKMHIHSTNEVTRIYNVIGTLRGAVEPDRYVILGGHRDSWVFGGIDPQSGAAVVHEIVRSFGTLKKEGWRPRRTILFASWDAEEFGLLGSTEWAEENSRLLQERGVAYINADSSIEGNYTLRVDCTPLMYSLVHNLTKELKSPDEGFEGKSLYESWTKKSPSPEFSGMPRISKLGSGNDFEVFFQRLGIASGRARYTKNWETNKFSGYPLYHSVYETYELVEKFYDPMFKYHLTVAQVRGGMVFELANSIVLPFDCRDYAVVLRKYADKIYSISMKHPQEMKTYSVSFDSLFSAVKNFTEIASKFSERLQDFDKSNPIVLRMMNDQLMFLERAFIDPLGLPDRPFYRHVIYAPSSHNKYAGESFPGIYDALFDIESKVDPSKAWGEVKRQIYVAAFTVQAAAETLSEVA

For GGGACCGAAAAAGACCUGACUUCUAUACUAAGUCUACGUUCCC (structured_RNA, 2'-deoxy-2'-fluoro on all C and U) [A9g], the binding result was “binds”.
